Substitutions are numbered along the chain they refer to.

The labels stand for the following.
B1: 1A11 (antibody, V domains shown)
VH: QVQLVQSGPGLVKPSETLSLTCTVSGGSINSYYWNWIRQPPGKGLEWIGYIYYSGSTNYNPSLKSRVTISVDTSKNQFSLKLSSVTAADTAVYYCARDPHDYIRGHFDLWGRGTLFTVSS
VL: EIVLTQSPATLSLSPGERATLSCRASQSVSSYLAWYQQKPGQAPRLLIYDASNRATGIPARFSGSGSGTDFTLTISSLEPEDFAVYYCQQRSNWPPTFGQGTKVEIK
notes: also called anti-PTK7 antibody 1A11
B2: 3C4 (antibody, V domains shown)
VH: QVQLEQSRAEVKKPGESLRISCKGSGYSFTSYWISWVRQMPGKGLEWMGRIDPSDSYTNYNPSFQGHVTISADKSISTAYLQWSSLKASDTAMYYCARRDGSYFDFDYWGQGTLVTVSS
VL: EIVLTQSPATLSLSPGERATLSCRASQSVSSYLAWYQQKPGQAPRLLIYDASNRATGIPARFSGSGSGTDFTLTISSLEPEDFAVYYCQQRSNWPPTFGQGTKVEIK
notes: also called anti-PTK7 antibody 3C4
B3: 3E6 (antibody, V domains shown)
VH: B2 VH with E5V, Q6E, R8G, K23R, N59K, N61S, S102D
VL: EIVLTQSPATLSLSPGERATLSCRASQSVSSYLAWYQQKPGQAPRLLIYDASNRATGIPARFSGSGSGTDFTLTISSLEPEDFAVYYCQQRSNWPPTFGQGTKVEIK
notes: also called anti-PTK7 antibody 3E6
B4: 1A7 (antibody, human IgG1, V domains shown)
VH: QVQLVESGGGVVQPGRSLRLSCAASGFTFSNYGMHWVRQAPGKGLEWVAVIYYDGSNKFYADSVKGRFTISRDNSKNTLYLQMSSLRAEDTAVYYCARDVAPPGSRAEYFHHWGQGTLVTVSS
VL: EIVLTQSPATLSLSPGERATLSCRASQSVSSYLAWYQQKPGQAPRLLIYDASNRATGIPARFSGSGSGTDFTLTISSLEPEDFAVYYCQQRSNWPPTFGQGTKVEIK
notes: also called anti-PTK7 antibody 1A7
B5: 2D11 (antibody, V domains shown)
VH: B4 VH with N31S, Y52F, F59Y, S84N, A92S, P102A, H111Q, H112N
VL: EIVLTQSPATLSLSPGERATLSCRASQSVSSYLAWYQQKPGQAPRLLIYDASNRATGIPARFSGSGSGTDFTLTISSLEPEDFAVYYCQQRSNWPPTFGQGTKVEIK
notes: also called anti-PTK7 antibody 2D11
B6: 2F5 (antibody, V domains shown)
VH: B4 VH with A23V, V50I, F59Y, S84N, P102A, P103A, F110L
VL: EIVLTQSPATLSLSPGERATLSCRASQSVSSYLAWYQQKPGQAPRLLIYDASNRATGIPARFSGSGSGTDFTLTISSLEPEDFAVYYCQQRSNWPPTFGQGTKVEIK
notes: also called anti-PTK7 antibody 2F5
B7: 2A5 (antibody, V domains shown)
VH: B4 VH with E6Q, Y52W, S56R, F59Y, S84N, P103A, H111Q, H112N
VL: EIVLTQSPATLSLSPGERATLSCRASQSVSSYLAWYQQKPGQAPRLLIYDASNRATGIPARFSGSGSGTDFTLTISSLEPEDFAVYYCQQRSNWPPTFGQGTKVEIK
notes: also called anti-PTK7 antibody 2A5
B8: 1F2 (antibody, V domains shown)
VH: QVQLVQSGGGLVQPGGSLRLSCAASGFTFSRYEMNWVRQAPGKGLEWVSYINSIGSAINYADSVKGRFTISRDNAKNSLYLQMRSLRAEDTAVYYCVREDNWNPGYWGQGTLVTVSS
VL: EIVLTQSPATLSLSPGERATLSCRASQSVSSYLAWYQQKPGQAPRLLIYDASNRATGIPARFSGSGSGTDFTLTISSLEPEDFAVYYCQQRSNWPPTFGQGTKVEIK
notes: also called anti-PTK7 antibody 1F2

The target of the first assay is T1, His-tagged human PTK7 protein (human, UniProt Q13308 31-704).
T1 construct: Bought protein; also called hPTK7-His; not shown: His tag
T1 sequence: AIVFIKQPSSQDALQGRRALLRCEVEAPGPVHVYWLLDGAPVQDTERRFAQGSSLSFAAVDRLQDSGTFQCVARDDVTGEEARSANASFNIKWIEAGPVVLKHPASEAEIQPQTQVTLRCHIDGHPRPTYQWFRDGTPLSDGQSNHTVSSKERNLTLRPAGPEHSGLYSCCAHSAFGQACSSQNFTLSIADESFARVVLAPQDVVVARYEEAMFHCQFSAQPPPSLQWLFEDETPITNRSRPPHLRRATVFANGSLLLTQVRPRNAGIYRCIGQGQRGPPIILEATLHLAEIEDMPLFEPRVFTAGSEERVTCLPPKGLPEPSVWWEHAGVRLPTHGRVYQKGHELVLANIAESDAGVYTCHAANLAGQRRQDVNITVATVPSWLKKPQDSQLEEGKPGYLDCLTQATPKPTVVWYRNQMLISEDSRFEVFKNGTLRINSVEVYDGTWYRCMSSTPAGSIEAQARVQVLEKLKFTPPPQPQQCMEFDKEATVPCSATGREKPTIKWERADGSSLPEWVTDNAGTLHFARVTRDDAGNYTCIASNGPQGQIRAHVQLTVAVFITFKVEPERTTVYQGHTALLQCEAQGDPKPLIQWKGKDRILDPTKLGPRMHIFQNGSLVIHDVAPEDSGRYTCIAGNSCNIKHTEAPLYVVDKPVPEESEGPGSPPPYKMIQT
Description: BLI Octet binning on hPTK7-His; competitor 2A5. On the procedure: (§1) Relative positions of target protein epitope between a pair of purified anti-PTK7 antibodies were analyzed by Biolayer Interferometry (BLI) using ForteBio Octet system at 30° C. A total of […] purified antibodies were used: 1A7, 1A11, 1F2, 2A5, 2D11, 2F5, 3C4 and 3E6.
(§2) 1×HBS-EP+ buffer (10 mM 4-(2-hydroxyethyl)-1-piperazineethanesulfonic acid (HEPES), 150 mM NaCl, 3 mM ethylenediaminetetraacetic acid (EDTA) and 0.05% P20, pH7.4) diluted from HBS-EP+ buffer (10×) was used as the running buffer throughout the experiment. His-tagged human PTK7 protein was captured at a flow rate of 10 μL/min, and 200 nM of antibody (Analyte 1) was injected at a flow rate of 30 μL/min to bind the ligand. Another antibody (Analyte 2) was injected under the same conditions to determine whether the binding of different antibodies interfered with each other. The binding time was 300 s for each antibody.
(§3) The binding value of each antibody was obtained using Data Analysis HT 12.0. To quantify the interference of one antibody binding to another, a binding ratio was calculated to compare each pair of antibodies. The binding ratio is defined as the binding value of the second antibody (Analyte 2), divided by the binding value of the first antibody (Analyte 1). […] In general, antibody pairs that interfere with each other have the same or overlapping epitopes.
For the molecule B1, the binding ratio is 0.75.
Take B2: the binding ratio is 0.93.
Take B3: the binding ratio was 0.81.
For the molecule B4, the binding ratio turned out to be 0.1.
As for B5, the binding ratio was 0.15.
As for B6, the binding ratio turned out to be 0.12.
Take B7: the binding ratio came out at 0.05.
Turning to B8, the binding ratio is 0.71.

The next assay has as its target T2, human PTK7 on human cancer cell lines (human, UniProt Q13308 31-1070).
T2 construct: Endogenous PTK7 of human tumour cell lines; also called PTK7 on A-431, NCI-H520, NCI-N87, SK-OV-3, BT-20, HCC1954, NCI-H226, NCI-H358, HCT116, PC-3, NCI-H292, NCI-H1975 cells
T2 sequence: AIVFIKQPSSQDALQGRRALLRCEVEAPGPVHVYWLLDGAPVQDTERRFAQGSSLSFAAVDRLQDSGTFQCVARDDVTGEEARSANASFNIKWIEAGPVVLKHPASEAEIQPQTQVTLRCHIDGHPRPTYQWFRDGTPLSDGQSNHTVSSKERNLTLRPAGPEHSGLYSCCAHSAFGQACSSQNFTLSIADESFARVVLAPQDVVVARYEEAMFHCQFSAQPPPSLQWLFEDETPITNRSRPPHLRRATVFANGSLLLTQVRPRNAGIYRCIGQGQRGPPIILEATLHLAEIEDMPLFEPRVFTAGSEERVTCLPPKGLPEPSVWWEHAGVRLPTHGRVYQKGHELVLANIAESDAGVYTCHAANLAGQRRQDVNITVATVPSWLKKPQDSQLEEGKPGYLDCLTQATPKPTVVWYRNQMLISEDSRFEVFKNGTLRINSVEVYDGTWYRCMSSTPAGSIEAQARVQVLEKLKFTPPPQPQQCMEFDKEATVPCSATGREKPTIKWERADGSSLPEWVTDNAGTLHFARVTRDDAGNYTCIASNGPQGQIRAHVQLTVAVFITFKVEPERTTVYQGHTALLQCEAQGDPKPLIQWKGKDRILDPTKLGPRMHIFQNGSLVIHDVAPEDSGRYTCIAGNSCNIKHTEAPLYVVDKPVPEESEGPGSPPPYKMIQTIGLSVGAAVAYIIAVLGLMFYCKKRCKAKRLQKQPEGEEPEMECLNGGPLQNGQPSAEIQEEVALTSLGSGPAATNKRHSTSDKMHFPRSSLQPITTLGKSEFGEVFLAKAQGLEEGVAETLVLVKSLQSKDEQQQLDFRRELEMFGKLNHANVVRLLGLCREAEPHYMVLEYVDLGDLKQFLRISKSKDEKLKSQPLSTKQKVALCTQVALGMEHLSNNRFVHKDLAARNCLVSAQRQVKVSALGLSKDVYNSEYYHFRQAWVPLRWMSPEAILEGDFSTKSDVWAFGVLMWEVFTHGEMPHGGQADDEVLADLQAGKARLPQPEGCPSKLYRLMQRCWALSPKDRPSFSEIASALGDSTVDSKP
Description: flow cytometry, HCC1954 cells, Ab 5 ug/mL. On the procedure:
(§4) The binding activity of anti-PTK7 antibodies to cancer cell lines was verified by flow cytometry. […] Purified anti-PTK7 antibody with a concentration of 5 μg/mL was added to each well and was incubated at 4° C. for 30 minutes. […] The cells were collected, and the mean fluorescence intensity (MFI) was determined. Human IgG1 was used as ISO control.
Background: A flow cytometer gives signals particle by particle.
As to B1, the MFI amounted to 172000.
Take B2: the MFI worked out at 187000.
Consider B3, for which the MFI was 207000.
B4 registered an MFI of 118000.
B5 yielded an MFI of 211000.
B6 yielded an MFI of 121000.
Same read-out and setting: the figure for B7 is 179000; for B8 it is 99100.

Another assay has as its target T1, His-tagged human PTK7 protein. Description: BLI Octet binning on hPTK7-His; competitor 3C4. How it is done:
as §1, §2, §3
A general note: BLI is a label-free optical method that tracks binding on a fibre tip over time.
Take B1: the binding ratio is 0.67.
In the case of B2, the binding ratio worked out at 0.16.
The same measure, in the same setting: the figure for B3 is 0.11.
The same measure, in the same setting: the figure for B4 is 0.66.
Still for that read-out and setting: the figure for B5 is 0.81.
Regarding B6, the binding ratio worked out at 0.71.
Regarding B7, the binding ratio stood at 0.62.
As for B8, the binding ratio amounted to 0.48.

For another assay the target is unchanged. Description: BLI Octet binning on hPTK7-His; competitor 1F2. On the procedure:
as §1, §2, §3
Turning to B1, the binding ratio came to 0.86.
On the same count and under the same terms, the same measure for B2: 0.9; for B3: 0.74; for B4: 0.84.
With B5, the binding ratio is 0.93.
As to B6, the binding ratio worked out at 0.85.
For B7, the binding ratio was determined as 0.78.
Same read-out and setting: the figure for B8 is 0.03.

The target is the same in another assay. As to the kind of experiment: BLI Octet binning on hPTK7-His; competitor 1A11. On the procedure:
as §1, §2, §3
Take B1: the binding ratio is -0.01.
For the molecule B2, the binding ratio was found to be 0.84.
Regarding B3, the binding ratio was 0.71.
Consider B4, for which the binding ratio came to 0.74.
Regarding B5, the binding ratio stood at 0.83.
For B6, the binding ratio turned out to be 0.71.
In the case of B7, the binding ratio came out at 0.62.
Still for that read-out and setting: the figure for B8 is 0.64.

The next assay shares this target. Description: BLI Octet binning on hPTK7-His; competitor 3E6. How it is done: as §1, §2, §3
Take B1: the binding ratio turned out to be 0.94.
On the same count and under the same terms, the figure for B2 is 0.17; for B3 it is 0.08; for B4 it is 1.05.
B5: the binding ratio came to 1.18.
With B6, the binding ratio was 1.02.
Still for that read-out and setting: the same measure for B7: 0.94; for B8: 0.75.

Another assay has as its target T2, human PTK7 on human cancer cell lines. As to the kind of experiment: flow cytometry, PC-3 cells, Ab 5 ug/mL. How it is done:
as §4
For B1, the MFI worked out at 67200.
Molecule B2 registered an MFI of 66700.
Take B3: the MFI was 94600.
Take B4: the MFI is 32500.
The same measure, in the same setting: the figure for B5 is 73000; for B6 it is 32400; for B7 it is 60700.
Molecule B8 came in with an MFI of 34900.

Values taken from patent publication US20260250421A1 (BIOCYTOGEN PHARMACEUTICALS BEIJING, published 2026).
